Measured values taken from article PMC7423924, “A fluorogenic cyclic peptide for imaging and quantification of drug-induced apoptosis” (Nature Communications, 2020).
Where “and” joins values, the source holds several entries; their conditions need not be identical. Equal values may be shown once.

Tested on: human monocyte-derived macrophages (MDMs)
Test: Phagocytosis of pHrodo-labeled apoptotic neutrophils by MDMs
Format: cell-based
Conditions: protein S 25 nM, AF647-Annexin V 25 nM
Protocol: Neutrophils were cultured in the absence (black) or presence of Apo-15 (gray: 100 nM, white: 300 nM). Data presented as mean values ± SEM (n = 3). b Representative histograms of glucocorticoid-treated human MDMs after phagocytosis of pHrodo^TM-labeled neutrophils in the presence of different concentrations of Apo-15. Cells were analyzed using a 5L LSR cytometer with MDM identified based on their distinctive forward and side scatter properties (n = 4). Gating strategy in Supplementary Fig. 15A. c Flow cytometric quantification of phagocytosis of pHrodo^TM-labeled neutrophils by human MDMs. Human MDMs and neutrophils were co-cultured in the absence or presence of protein S (25 nM) and Apo-15 (60 or 600 nM) or AF647-Annexin V (25 nM). Data presented as mean values ± SEM (n ≥ 3). d Representative brightfield and fluorescence microscope images (from four independent experiments) of Apo-15-treated human neutrophils (green) in co-culture with human MDMs. […]
One potential limitation to the use of annexins for imaging apoptosis is their interference with the clearance of apoptotic cells by phagocytes. […] We examined whether Apo-15 affected the engulfment of apoptotic cells using a well-established in vitro assay to quantify the extent of phagocytosis in human monocyte-derived macrophages (MDMs) in the presence of the PS-opsonin protein S (Fig. 4b)[32],[33]. […]

B1: Annexin V: fluorescently-labeled (AF647) annexin V, PS-binding protein (protein, UniProt P08758 2-320, looked up)
Annexin A5: AQVLRGTVTDFPGFDERADAETLRKAMKGLGTDEESILTLLTSRSNAQRQEISAAFKTLFGRDLLDDLKSELTGKFEKLIVALMKPSRLYDAYELKHALKGAGTNEKVLTEIIASRTPEELRAIKQVYEEEYGSSLEDDVVGDTSGYYQRMLVVLLQANRDPDAGIDEAQVEQDAQALFQAGELKWGTDEEKFITIFGTRSVSHLRKVFDKYMTISGFQIEETIDRETSGNLEQLLLAVVKSIRSIPAYLAETLYYAMKGAGTDDHTLIRVMVSRSEIDLFNIRKEFRKNFATSLYSMIKGDTSGDYKKALLLLCGEDD
modifications: AF647 label
40 min, 37 °C, single replicates
  Phagocytosis assay (%): 30.0% and 35.0% and 33.0%
Apo-15 60 or 600 nM
  Reduction of the phagocytic capacity of MDMs: ~ 50%
